Target: T1, anti-CD28 Fab (SEQ ID NOs: 202, 203)
T1 construct: biotinylated and captured on neutravidin coated plates in the phage ELISA
Assay: phage binding ELISA on captured biotinylated Fab;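 further: clonal phage supernatants added to wells preincubated with CD28 antigen or blocking buffer only, bound phage detected by ELISA with horseradish-conjugated anti-M13 antibody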
Procedure: (§1) After panning, phage infected bacteria were plated out and colonies picked into 96 well blocks. Clonal phage was then amplified and separated from bacterial cells via centrifugation.
(§2) Clonal phage were harvested as crude supernatants and screened via standard ELISAs. […] Prior to the addition of clonal phage, wells were incubated with blocking buffer and CD28 antigen or blocking buffer alone. Without washing or aspirating, clonal phage supernatants were then added to the wells and incubated for a short time. Wells were then washed followed by detection of bound phage using a horse radish conjugated anti-M13 antibody. Clonal phage of interest were then sent for sequence analysis.

T1 sequence (VH, as listed by the source, chain 1 of 2): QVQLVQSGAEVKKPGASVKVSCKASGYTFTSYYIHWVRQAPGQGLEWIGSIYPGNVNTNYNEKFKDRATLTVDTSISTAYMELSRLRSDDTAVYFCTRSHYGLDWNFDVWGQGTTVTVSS
T1 sequence (VL, as listed by the source, chain 2 of 2): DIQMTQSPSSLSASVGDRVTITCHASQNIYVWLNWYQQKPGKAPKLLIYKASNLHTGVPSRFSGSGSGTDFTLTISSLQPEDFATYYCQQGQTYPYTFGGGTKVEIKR

Compared with YCAGHSPINIGKCL [Phage-10], YCAGHTEEHYVKCM [Phage-22] is lower in “Anti-CD28 Fab (SEQ ID NOs: 202, 203) signal” value (shortened to “Anti-CD28 Fab”): 1.49 for the first, 0.62 for the second.

Going from TCAAGATWSWPACF [Phage-892] to YWYCSPSIVRCVLV [Phage-15], the “Anti-CD28 Fab” value falls from 2.23 to 1.51.

Compared with TCSAGATYTWPKCF [Phage-891], TCSEGATYTWPWCF [Phage-954] is higher in “Anti-CD28 Fab” value: 1.87 for the first, 2.05 for the second.

Compared with ACDTYFAGMINECF [Phage-5], YCAGMSTIQLWLKC [Phage-20] is higher in “Anti-CD28 Fab” value: 0.92 for the first, 2.16 for the second.

First: YCAGHMPQYEVKCL [Phage-21]
Second: WICDKSGSIMLCRA [Phage-17]
The “Anti-CD28 Fab” value of the first is lower: 0.22 for the first, 0.91 for the second.

First: TCAAGAAWPWPQCL [Phage-890]
Second: YCMGHSHEHIWKCL [Phage-23]
The “Anti-CD28 Fab” value of the first is higher: 2.23 for the first, 0.87 for the second.

Going from GCQYPWAFDAMSCP [Phage-6] to FMCLPQNPHPLCFK [Phage-3], the “Anti-CD28 Fab” value falls from 2.38 to 0.84.

First: PDCQTILFKPWCVR [Phage-4]
Second: PDCHTILFKPWCVR [Phage-16]
The “Anti-CD28 Fab” value of the first is higher: 2.09 for the first, 1 for the second.

Compared with YCAGHSHEYLAKCE [Phage-24], WCWDYREWVPMTCP [Phage-8] is higher in “Anti-CD28 Fab” value: 0.86 for the first, 2.3 for the second.

First: WCWYYREWVPMTCP [Phage-14]
Second: ECHWSMWAVGHACF [Phage-9]
The “Anti-CD28 Fab” value of the first is higher: 1.85 for the first, 1.77 for the second.

Compared with WCWDYKLWVPTQCP [Phage-7], YWSCFQIPFTCFYF [Phage-1] is lower in “Anti-CD28 Fab” value: 2.27 for the first, 1.44 for the second.

First: DCWWMFESYPGRCI [Phage-12]
Second: SCAAGASYAWPYCL [Phage-18]
The “Anti-CD28 Fab” value of the first is higher: 1.65 for the first, 1.49 for the second.

Compared with YCAGHAWQYINKCL [Phage-13], WCWDYKLWVPMTCP [Phage-11] is higher in “Anti-CD28 Fab” value: 0.64 for the first, 2.51 for the second.

Going from LCAAGASWPWPVCL [Phage-888] to WECLKYTEANACTY [Phage-2], the “Anti-CD28 Fab” value falls from 2.16 to 1.55.

With DCPWLSGFSRPLLC [Phage-19] the “Anti-CD28 Fab” value was 1.27.

Target: T2, Anti-CD28 Fab (SEQ ID NOs: 202, 203)
T2 construct: biotinylated and captured on neutravidin coated plates in the phage ELISA
T2 sequence (VH, as listed by the source, chain 1 of 2): as the sequence (VH, as listed by the source, chain 1 of 2) above
T2 sequence (VL, as listed by the source, chain 2 of 2): as the sequence (VL, as listed by the source, chain 2 of 2) above
Assay: phage binding ELISA, Fab on plate;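 further: clonal phage supernatant ELISA, wells preincubated with CD28 antigen or blocking buffer only, then bound phage detected using HRP-linked anti-M13 antibody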
Procedure: as §1, §2

Compared with SCSAGAAWPWPWCL [Phage-1085], TCAAGATWDWPLCF [Phage-1099] is lower in “Anti-CD28 Fab” value: 1.55 for the first, 1.51 for the second.

Compared with SCSAVFSYAWPTCL [Phage-1064], SCAAGAQYGWPMCL [Phage-1076] is lower in “Anti-CD28 Fab” value: 1.61 for the first, 1.59 for the second.

Compared with LCAAGAAYPWPMCL [Phage-1073], SCSAGAMYPWPMCL [Phage-1093] is lower in “Anti-CD28 Fab” value: 1.59 for the first, 1.53 for the second.

First: TCAAGAHYEWPMCY [Phage-1063]
Second: TCSAVFSYTWSNCF [Phage-1089]
The “Anti-CD28 Fab” value of the first is higher: 1.61 for the first, 1.54 for the second.

Going from TCAAGASWEWPLCF [Phage-1094] to LCAEGADYPWPMCL [Phage-1098], the “Anti-CD28 Fab” value falls from 1.52 to 1.51.

First: SCKAGAPYYWPGCF [Phage-1088]
Second: LCAAGFNYPWPLCL [Phage-1083]
The “Anti-CD28 Fab” value of the first is lower: 1.54 for the first, 1.57 for the second.

Compared with TCEAVFIYSWPFCL [Phage-1096], MCTAGATYPWPACL [Phage-1084] is higher in “Anti-CD28 Fab” value: 1.52 for the first, 1.56 for the second.

Going from TCAAGAAWEWPICF [Phage-1091] to SCAAGATYEWPRCL [Phage-1068], the “Anti-CD28 Fab” value rises from 1.54 to 1.6.

Compared with SCAAGATYEWPICL [Phage-1074], TCSAGATYSWPFCF [Phage-1087] is lower in “Anti-CD28 Fab” value: 1.59 for the first, 1.55 for the second.

First: TCAAGAMWTWPECL [Phage-1081]
Second: LCAEGFDYSWPMCL [Phage-1086]
The “Anti-CD28 Fab” value of the first is higher: 1.57 for the first, 1.55 for the second.

Compared with TCAAGAHWIWPWCE [Phage-1066], WCAAGASYPWPWCL [Phage-1077] is lower in “Anti-CD28 Fab” value: 1.61 for the first, 1.58 for the second.

Going from TCAAGAMWNWPQCY [Phage-1092] to TCSAGAAYAWPYCL [Phage-1072], the “Anti-CD28 Fab” value rises from 1.54 to 1.59.

Compared with TCAAGAGWQWPMCF [Phage-1067], SCAAGAPYPWPECL [Phage-1071] is lower in “Anti-CD28 Fab” value: 1.6 for the first, 1.59 for the second.

First: TCSAGFSYKWPWCL [Phage-1080]
Second: TCSAGATYVWPDCF [Phage-1095]
The “Anti-CD28 Fab” value of the first is higher: 1.57 for the first, 1.52 for the second.

Going from TCAAGAYYAWPMCL [Phage-1070] to SCAAGATFHWPMCF [Phage-1079], the “Anti-CD28 Fab” value falls from 1.59 to 1.57.

TCAAGATYPWPECM [Phage-1082] and TCTAVFPYEWPRCL [Phage-1078] are the same in “Anti-CD28 Fab” value: 1.57 for the first, 1.57 for the second.

From patent US20260274955A1 (JANUX THERAPEUTICS, published 2026)
